Reference: PMC13585564
Blank lines part the entries; values can stand above or below the substance they belong to.

Legend:
[1] = molecular target: HSL3 ectodomain (wild type, residues 23–627); assay: ITC; settings: ligand in syringe, receptor in cell; N = 1
[2] = molecular target: HSL3 ectodomain (wild type, residues 23–627) (Arabidopsis); assay: ITC; CTNIP4 peptide (140–800 µM, syringe) injected into 15 µM HSL3 ectodomain or variant (cell); 25 °C; 20 mM sodium citrate, 150 mM NaCl, pH 5.0; N fitted to 1
[3] = molecular target: SERK1 ectodomain (residues 24–213) (UniProt Q94AG2); assay: ITC; settings: SERK1 in syringe; HSL3 + peptide in cell; N = 1
[4] = molecular target: CTNIP4(46–70)_(Cys–Cys); assay: ITC; settings: ligand in syringe, receptor in cell; N = 1
[5] = molecular target: SERK3; assay: ITC; settings: SERK3 in syringe; HSL3 + peptide in cell; N = 1

Chain of SERK1 ectodomain (residues 24–213) (Q94AG2 whole entry, looked up, the tested form may be a part): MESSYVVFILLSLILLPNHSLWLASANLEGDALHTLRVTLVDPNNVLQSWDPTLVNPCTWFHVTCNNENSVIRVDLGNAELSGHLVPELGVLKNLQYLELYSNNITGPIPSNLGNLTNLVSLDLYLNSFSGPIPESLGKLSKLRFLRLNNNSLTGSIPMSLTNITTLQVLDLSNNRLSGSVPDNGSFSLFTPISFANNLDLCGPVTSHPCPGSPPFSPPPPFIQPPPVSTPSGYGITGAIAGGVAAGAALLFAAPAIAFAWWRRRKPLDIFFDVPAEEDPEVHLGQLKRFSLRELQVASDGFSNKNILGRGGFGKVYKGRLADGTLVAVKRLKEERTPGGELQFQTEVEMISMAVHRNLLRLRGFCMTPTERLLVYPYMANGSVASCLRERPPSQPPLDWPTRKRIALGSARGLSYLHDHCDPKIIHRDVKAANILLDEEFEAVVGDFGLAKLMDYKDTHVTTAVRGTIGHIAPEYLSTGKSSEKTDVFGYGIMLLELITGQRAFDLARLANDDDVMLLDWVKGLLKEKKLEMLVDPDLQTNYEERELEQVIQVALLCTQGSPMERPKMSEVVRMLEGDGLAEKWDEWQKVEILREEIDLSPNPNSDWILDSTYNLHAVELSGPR

Substance: CTNIP4(46–70)_(Cys–Cys) S53A
- Kd [1]: 3440 nM
- other: ΔH [1]: -17.5 kcal/mol

Substance: HSL3 ectodomain (wild type, residues 23–627) D241A
- other: ΔH [4]: -17.6 kcal/mol

Substance: HSL3 ectodomain (wild type, residues 23–627) E171A
- other: ΔH [4]: -21.2 kcal/mol

Substance: HSL3–CTNIP4 complex (HSL3 ectodomain pre-incubated with CTNIP4(46–70)_(Cys–Cys)) C58A; C68A
- other: ΔH [3]: -7.1 kcal/mol

Substance: HSL3–CTNIP4 complex (HSL3 ectodomain pre-incubated with CTNIP4(46–70)_(Cys–Cys)) N60A
- other: ΔH [5]: 3.3 kcal/mol

Substance: HSL3–CTNIP4 complex (HSL3 ectodomain pre-incubated with CTNIP4(46–70)_(Cys–Cys)) N60F
- other: ΔH [5]: 13.2 kcal/mol

Next, values leading:

- fold impairment of binding against CTNIP4(46–70) (Cys–Cys) [2]: 200 fold
Substance: CTNIP4^C58A.C68A(46–70)_(linear) (peptide)

- other: ΔH [3]: -3.7 kcal/mol
Substance: HSL3 + CTNIP4(46–63) C58A

- other: ΔH [4]: -3.4 kcal/mol
Substance: HSL3 ectodomain (wild type, residues 23–627) D288A

- Kd [4]: 112 nM
- other: ΔH [4]: -25.9 kcal/mol
Substance: HSL3 ectodomain (wild type, residues 23–627) R358A
